These results are taken from the supplement of paper PMC9112550, “Optimization of the antimicrobial peptide Bac7 by deep mutational scanning” (BMC Biology, 2022).

In this data set the test system is Escherichia coli TOP10. The data set is described as follows: shrunken log2 fold change of peptide-encoding DNA abundance (4.5 h post-induction vs induction); higher = less antimicrobial activity (less host growth inhibition). The note with it: time post-induction: 4.5 h; library: site-saturation at positions 5, 18, 19, 20.
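Further: peptides expressed intracellularly from a pBAD plasmid library in pooled LB shake-flask culture, induced with 0.3% L-arabinose, DNA abundance read by NGS, three biological replicates, DESeq2 with apeglm shrinkage.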

Turning to RRIRGRPPRLPRPRPRPEPVPRP, the “shrunken log2 fold change” value amounted to 0.806. Under RRIRPRPPRLPRPRPRPCDRPRP stands 0.0787; under RRIRRRPPRLPRPRPRPKYEPRP, 0.811.

As to RRIRWRPPRLPRPRPRPKHDPRP, the “shrunken log2 fold change” value is 0.0868. Then RRIRYRPPRLPRPRPRPQMYPRP, with -0.286; and RRIRERPPRLPRPRPRPIHSPRP, with -1.52. Under RRIRGRPPRLPRPRPRPDGLPRP stands 0.053; under RRIRCRPPRLPRPRPRPYGTPRP, 0.016; under RRIRKRPPRLPRPRPRPSMEPRP, 0.181. In the case of RRIRVRPPRLPRPRPRPIMQPRP, the “shrunken log2 fold change” value is -0.149. Then RRIRARPPRLPRPRPRPCKEPRP, with 0.000506; and RRIRMRPPRLPRPRPRPYCIPRP, with 0.0786; and RRIRHRPPRLPRPRPRPAKNPRP, with -0.207.

RRIRVRPPRLPRPRPRPTMYPRP: the “shrunken log2 fold change” value was -0.245. Then RRIRHRPPRLPRPRPRPLPTPRP, with 0.245; and RRIRARPPRLPRPRPRPSFFPRP, with 0.238; and RRIRVRPPRLPRPRPRPNLPPRP, with 0.232. Under RRIRHRPPRLPRPRPRPWVHPRP stands -0.179. Under RRIRTRPPRLPRPRPRPTIEPRP stands -0.297; under RRIRNRPPRLPRPRPRPTTCPRP, -0.275; under RRIRWRPPRLPRPRPRPQSCPRP, 0.0975.

Consider RRIRQRPPRLPRPRPRPTYVPRP, for which the “shrunken log2 fold change” value was -0.161. Then RRIRPRPPRLPRPRPRPNGDPRP, with -0.0945; and RRIRWRPPRLPRPRPRPNSVPRP, with -0.325; and RRIRERPPRLPRPRPRPLVPPRP, with -0.182. Then RRIRTRPPRLPRPRPRPGFCPRP, with 0.106; and RRIRTRPPRLPRPRPRPAPFPRP, with 0.0263.

For RRIRARPPRLPRPRPRPRRAPRP, the “shrunken log2 fold change” value is 0.831. Under RRIRHRPPRLPRPRPRPGIFPRP stands -0.24. Then RRIRCRPPRLPRPRPRPNKWPRP, with -0.00442; and RRIRRRPPRLPRPRPRPEVQPRP, with -0.00368. For RRIRYRPPRLPRPRPRPAPSPRP, the “shrunken log2 fold change” value is -0.0165. As for RRIRTRPPRLPRPRPRPYPEPRP, the “shrunken log2 fold change” value is -0.817.

Consider RRIRTRPPRLPRPRPRPLAAPRP, for which the “shrunken log2 fold change” value is 0.363. Under RRIRMRPPRLPRPRPRPILSPRP stands 0.00774; under RRIRGRPPRLPRPRPRPCMRPRP, 0.767. Then RRIRFRPPRLPRPRPRPDCCPRP, with -0.0954; and RRIRTRPPRLPRPRPRPPEQPRP, with 0.151. Then RRIRRRPPRLPRPRPRPGVWPRP, with 0.47. RRIRVRPPRLPRPRPRPGGMPRP: the “shrunken log2 fold change” value stood at 0.0665. Then RRIRRRPPRLPRPRPRPNWAPRP, with 0.164. Then RRIRARPPRLPRPRPRPWIEPRP, with -0.105; and RRIRLRPPRLPRPRPRPLYKPRP, with -0.328. Then RRIRLRPPRLPRPRPRPFTVPRP, with 0.0023; and RRIRKRPPRLPRPRPRPWVHPRP, with -0.0825; and RRIRRRPPRLPRPRPRPINLPRP, with -0.00491. Regarding RRIRGRPPRLPRPRPRPCSMPRP, the “shrunken log2 fold change” value is -0.0323. Under RRIRARPPRLPRPRPRPMTYPRP stands -0.086; under RRIRLRPPRLPRPRPRPCHSPRP, -0.011; under RRIRHRPPRLPRPRPRPDYLPRP, -0.998.

RRIRCRPPRLPRPRPRPHTGPRP: the “shrunken log2 fold change” value was -0.341. For RRIRGRPPRLPRPRPRPDFMPRP, the “shrunken log2 fold change” value came to 0.545. Then RRIRFRPPRLPRPRPRPDEVPRP, with -0.00705. Then RRIRFRPPRLPRPRPRPRETPRP, with 0.0137. Under RRIRRRPPRLPRPRPRPRNNPRP stands -0.204; under RRIRPRPPRLPRPRPRPEMWPRP, 0.579; under RRIRQRPPRLPRPRPRPVTCPRP, 0.0138. Turning to RRIRRRPPRLPRPRPRPMDMPRP, the “shrunken log2 fold change” value stood at 0.0833. Consider RRIRFRPPRLPRPRPRPIKWPRP, for which the “shrunken log2 fold change” value was -0.101. Take RRIRIRPPRLPRPRPRPSECPRP: the “shrunken log2 fold change” value is -0.00498. Under RRIRIRPPRLPRPRPRPHMVPRP stands -0.181; under RRIRLRPPRLPRPRPRPFAPPRP, 0.263.

For the sequence RRIRKRPPRLPRPRPRPNKRPRP, the “shrunken log2 fold change” value is -0.0102. Under RRIRTRPPRLPRPRPRPNGTPRP stands -0.402; under RRIRNRPPRLPRPRPRPNSAPRP, 0.026. Then RRIRRRPPRLPRPRPRPLACPRP, with 0.491; and RRIRMRPPRLPRPRPRPLYDPRP, with -0.0878; and RRIRHRPPRLPRPRPRPRCEPRP, with 0.149. Then RRIRDRPPRLPRPRPRPHDSPRP, with -0.00201. As for RRIRTRPPRLPRPRPRPPREPRP, the “shrunken log2 fold change” value was 0.141. Then RRIRLRPPRLPRPRPRPPGKPRP, with -0.0183. Then RRIRIRPPRLPRPRPRPDMMPRP, with 0.0293; and RRIRLRPPRLPRPRPRPGMRPRP, with 0.787; and RRIRQRPPRLPRPRPRPEMLPRP, with 0.0554. Under RRIRHRPPRLPRPRPRPNQTPRP stands -0.0854; under RRIRDRPPRLPRPRPRPSWIPRP, -0.454; under RRIRARPPRLPRPRPRPWDSPRP, -0.277.

Turning to RRIRYRPPRLPRPRPRPAASPRP, the “shrunken log2 fold change” value was -0.0616.

Consider RRIRVRPPRLPRPRPRPYWFPRP, for which the “shrunken log2 fold change” value is -0.396. Then RRIRCRPPRLPRPRPRPTMLPRP, with -0.096; and RRIRNRPPRLPRPRPRPYWHPRP, with -0.0277. With RRIRERPPRLPRPRPRPGNIPRP, the “shrunken log2 fold change” value was -0.989.

On to RRIRHRPPRLPRPRPRPIGKPRP, for which the “shrunken log2 fold change” value came out at 0.0218. Then RRIRCRPPRLPRPRPRPPLPPRP, with 0.539. Under RRIRDRPPRLPRPRPRPYQYPRP stands -0.0404. Then RRIRCRPPRLPRPRPRPWPTPRP, with 0.0985; and RRIRLRPPRLPRPRPRPMYRPRP, with 0.0136. As to RRIRQRPPRLPRPRPRPLNIPRP, the “shrunken log2 fold change” value was -0.315. Under RRIRKRPPRLPRPRPRPFDLPRP stands 0.0686; under RRIRSRPPRLPRPRPRPHQTPRP, -0.066. Under RRIRARPPRLPRPRPRPATRPRP stands 0.487.
